Measured values as given in paper PMC8097376 (EMBO Reports, 2021).

Experiments:
[1] = molecular target: T1, SARS-CoV-2 spike receptor-binding domain (RBD) (SARS-CoV-2, UniProt P0DTC2, biotinylated for BLI (site not stated); covalently coupled to MagPlex beads by EDC/sNHS in the bead assays); assay: BLI; conditions: both partners purified
[2] = molecular target: T1, SARS-CoV-2 spike receptor-binding …; assay: bead-based multiplex ACE2 competi; conditions: both partners purified

B1: nanobody NM1226 (VHH)
VHH: QVQLVESGGGSVQPGGSLRLSCLGSGSLDYYAIGWFRQAPGKEREGVSCIASSGDRTIYADSVKGRFTISRDYGKNTVYLQMNSLKPEDTAMYYCAALQGSYYYTGFVANEYDYWGQGAPVTVSS
- Kd [1]: 3.66 nM
- IC50 [2]: 0.82 nM
